Measurements: patent publication US20040229289A1, “Antigen binding peptides (abtides) from peptide libraries” (Cytogen Corporation, priority 1994, published 2004)

T1: PEM peptide (human)
T1 peptide: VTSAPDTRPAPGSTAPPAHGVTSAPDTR


Biological target: T1, PEM peptide
Test: phage ELISA on PEM
Settings: not given

Row | Molecule | binding result
1 | GSSGWKVKHRCGGPGTLQRPGCGNLPLGHTFPPTRGGSHMEGA [E84] | binds
2 | GPRSWMGQPRGSDAGSCKWAGCGDAPMWRASTPGHGGPPNRGS [E85] | binds
3 | GAPVWRGNRWCSDNGELERPGCGYGPRFNILPPGRGNSRKPSP [E73] | binds
4 | GTRVPPGFALRGGRDGLSWAGCGKAPISKTYTSARGRSRKKGS [E3] | no binding
5 | GSPVWSGDNRWRGSSPLKRPGCGNGAKCNTLKDNRKDSRKTKH [E33] | binds
6 | SSGVGNGKPRSWAPDALNGGCGNIQFANTITPDRGGSCNQTL [E24] | no binding
7 | GLSLVRGDSWGSGAGGWKRHGCGHGPMYNPQTPARGGSCTRNT [E66] | binds
8 | GAHGYKNGSTCTGLGGWRCRGCGKGAMCNNPSPAGGAYHNQGP [E29] | binds
9 | GAPLWCEKLSGTGSGGFKWPGCGSGPTYNTFTPARVGSDNKWP [E7] | binds
10 | CAPMWSGKPPWCVGGGVKFRGCGNRPDCNIITPRLVESRDKAL [E68] | binds
11 | GSPVWMGSTRWTGHGWFRSQGCGNVPRTNSCAPAGKDSQNKGP [E65] | binds
12 | RSAVSEGKPREIVPGGCMWPGCGNGRKSNTLTHGPEQFQEIEP [E15] | no binding
13 | VSRAWSGKPRLMGSHGLNCPGCGKGHSGIMFIPDPAGSANTPP [E67] | binds
14 | VSTGWSGTPRWCAPGGKQGSGCGNGPRWTTLTPDLGGTRKYGP [E4] | binds
15 | GSALLTSKGCVRGPGGLMRPGCGNDRLGKSSTYAHGGWIKTGP [E21] | binds
16 | GAPVSRCKPACGGFWGVNWPGCGNASMCKTFTNGHGVSSDNGH [E22] | binds
17 | GAPVVGDILWCSGARGAKWPGCGKGPTNKTFSHSRGGTQKSGL [E90] | binds
18 | GQPECRITSGCCGTDGNKWLGCGKVDMCNTLNPAVGCHGTNGS [E34] | no binding
19 | ADPVCSRKPDGGGLRGLRWPGCGKGPILYNVTAARGGSRNNGP [E70] | binds
20 | GEPVWCRHSGGRVQGGLDWLGCGDGPLRYTVTPARGGPSKHGP [E64] | binds
21 | EALVCRGKPPWSGPAGLLWQGCGTGPVSRTFTSAQGRSRNKTS [E88] | binds
22 | GPPVWSAKSRWTGTGVLNWPGCGKVPSCSTYTPSRDRSRKSDP [E16] | binds

Biological target: T2, PEM (Homo sapiens, UniProt P15941)
T2 construct: made in house; host or cells: chemical peptide synthesis
Test: ELISA of phage from the MP-1 saturation mutagenesis library for binding to PEM
Settings: phage-displayed abtide from MP-1 saturation mutagenesis library
Description: A saturation mutagenesis library based on one of the PEM abtides, MP-1, was constructed. Nucleotide sequences encoding the MP-1 abtide were synthesized using a doping scheme similar to that described in Section 5.3 whereby each nucleotide was contaminated with 9% of each of the other 3 nucleotides (e.g. G=73% G, 9% A, 9% T, 9° C.). The resulting mutagenic oligonucleotides were used to construct a library by TSAR library methods described above (see FIG. 13).
The resulting library was screened to identify phage expressing abtides capable of binding to PEM. The binding of isolated phage to PEM was confirmed by an ELISA assay.

Row | Molecule | binding of isolated phage to PEM (ELISA)
23 | G PQGSEHQCCSGHWGLKFPGCGNGPICNNFTALRGASRKNGP (GPQGSEHQCCSGHWGLKFPGCGNGPICNNFTALRGASRKNGP) [E62] | Positive Binding Sequences
24 | REPVVGGKPWCRGPGGLRWRGCGKSQFDKIITLSRDNRRDKRP [E83] | Negative Binding Sequences
25 | EALVCRGKPPWSGPAGLLWQGCGTGPVSRTFTSAQGRSRNKTS [E88] | Positive Binding Sequences
26 | GPRSWMGQPRGSDAGSCKWAGCGDAPMWRASTPGHGGPPNRGS [E85] | Positive Binding Sequences
27 | GAPLWQGDPADEVLGGSMIPGCGIGALSQTFTPTPGGSRKNVT (phage displayed) [E37] | Negative Binding Sequences
28 | GPPVWSAKSRWTGTGVLNWPGCGKVPSCSTYTPSRDRSRKSDP (phage displayed) [E16] | Positive Binding Sequences
29 | GAHGYKNGSTCTGLGGWRCRGCGKGAMCNNPSPAGGAYHNQGP (phage displayed) [E29] | Positive Binding Sequences
30 | GTRVPPGFALRGGRDGLSWAGCGKAPISKTYTSARGRSRKKGS (phage displayed) [E3] | Negative Binding Sequences
31 | GSPVWMGSTRWTGHGWFRSQGCGNVPRTNSCAPAGKDSQNKGP [E65] | Positive Binding Sequences
32 | QARVSMAISCRSGPSDLMHQGCGYGPRCNPDTTDSGGSHTNTP (phage displayed) [E49] | Negative Binding Sequences
33 | GDPECRGKPRGRWTGSLACTGCGNGPNSKICTRARGVSRNKGP [E60] | Negative Binding Sequences
34 | VSRAWSGKPRLMGSHGLNCPGCGKGHSGIMFIPDPAGSANTPP [E67] | Positive Binding Sequences
35 | GQPECRITSGCCGTDGNKWLGCGKVDMCNTLNPAVGCHGTNGS (phage displayed) [E34] | Negative Binding Sequences
36 | RSAVSEGKPREIVPGGCMWPGCGNGRKSNTLTHGPEQFQEIEP (phage displayed) [E15] | Negative Binding Sequences
37 | GAPVWRGNPRWRGPGGFKWPGCGNGPMCNTFTPARGGSRNNGP [MP-1] | Positive Binding Sequences
38 | GAPVWRGNRWCSDNGELERPGCGYGPRFNILPPGRGNSRKPSP [E73] | Positive Binding Sequences

Row | Molecule | binding of isolated phage to PEM (ELISA)
39 | SSGVGNGKPRSWAPDALNGGCGNIQFANTITPDRGGSCNQTL (phage displayed) [E24] | Negative Binding Sequences
40 | GSPVWSGDNRWRGSSPLKRPGCGNGAKCNTLKDNRKDSRKTKH (phage displayed) [E33] | Positive Binding Sequences
41 | CAPMWSGKPPWCVGGGVKFRGCGNRPDCNIITPRLVESRDKAL [E68] | Positive Binding Sequences
42 | GSALLTSKGCVRGPGGLMRPGCGNDRLGKSSTYAHGGWIKTGP (phage displayed) [E21] | Positive Binding Sequences
43 | G PLLPGEAAVHGARGLMRSGCGNGPTWNRLTAACRDSRNKGP (GPLLPGEAAVHGARGLMRSGCGNGPTWNRLTAACRDSRNKGP; phage displayed; extra N-terminal G) [E44] | Positive Binding Sequences
44 | ADPVCSRKPDGGGLRGLRWPGCGKGPILYNVTAARGGSRNNGP [E70] | Positive Binding Sequences
45 | GAPVVGDILWCSGARGAKWPGCGKGPTNKTFSHSRGGTQKSGL [E90] | Positive Binding Sequences
46 | STPGCSGYSGSGDPRCLTCTACGNGHTRKTLTPAHGRSTHKEP [E72] | Negative Binding Sequences
47 | AGRELRQDEGEGGAGADVARLREGPICSTFTPARGGSCPSGL (phage displayed) [E43] | Negative Binding Sequences
48 | GEPVWCRHSGGRVQGGLDWLGCGDGPLRYTVTPARGGPSKHGP [E64] | Positive Binding Sequences
49 | GLSLVRGDSWGSGAGGWKRHGCGHGPMYNPQTPARGGSCTRNT [E66] | Positive Binding Sequences
50 | GAPLWCEKLSGTGSGGFKWPGCGSGPTYNTFTPARVGSDNKWP [E7] | Positive Binding Sequences
51 | VSTGWSGTPRWCAPGGKQGSGCGNGPRWTTLTPDLGGTRKYGP (phage displayed) [E4] | Positive Binding Sequences
52 | GAPVSRCKPACGGFWGVNWPGCGNASMCKTFTNGHGVSSDNGH (phage displayed) [E22] | Positive Binding Sequences
53 | GSSGWKVKHRCGGPGTLQRPGCGNLPLGHTFPPTRGGSHMEGA [E84] | Positive Binding Sequences
54 | GSSVCGGQPSGRGFGGLPGPGCGNGPTSNTLTSARGGFPNKGL (phage displayed) [E27] | Negative Binding Sequences
